Source: patent publication US20240400614A1, “CLEAVABLE PEPTIDES AND METHODS OF USE THEREOF” (Bright Peak Therapeutics AG, priority 2023, published 2024)
Square brackets hold non-standard residues; d marks the D form. Ends that are not written are not given here. Tyr(3-NO2) = N[C@@H](Cc1ccc(O)c([N+](=O)[O-])c1)C(=O)O; Nle = CCCC[C@H](N)C(=O)O; 2Abz = Nc1ccccc1C(=O)O

Legend:
Format in all cases: biochemical
matriptase = target: T1, matriptase (Homo sapiens, UniProt Q9Y5Y6); assay: FRET peptide cleavage efficiency with matriptase
T1 construct: purchased R&D Systems 3946-SEB
T1 sequence (Q9Y5Y6 615-855 limits assumed): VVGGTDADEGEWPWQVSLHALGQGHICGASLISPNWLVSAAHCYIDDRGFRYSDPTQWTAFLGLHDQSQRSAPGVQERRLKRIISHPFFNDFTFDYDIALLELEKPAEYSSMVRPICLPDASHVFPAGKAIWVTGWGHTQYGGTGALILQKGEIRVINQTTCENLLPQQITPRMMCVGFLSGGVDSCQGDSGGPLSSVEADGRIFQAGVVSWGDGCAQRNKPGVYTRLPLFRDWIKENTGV

MMP-2 = target: T2, MMP-2 (Homo sapiens, UniProt P08253); assay: FRET peptide cleavage efficiency with MMP-2
T2 construct: purchased SIGMA PF023
T2 sequence (P08253 110-660): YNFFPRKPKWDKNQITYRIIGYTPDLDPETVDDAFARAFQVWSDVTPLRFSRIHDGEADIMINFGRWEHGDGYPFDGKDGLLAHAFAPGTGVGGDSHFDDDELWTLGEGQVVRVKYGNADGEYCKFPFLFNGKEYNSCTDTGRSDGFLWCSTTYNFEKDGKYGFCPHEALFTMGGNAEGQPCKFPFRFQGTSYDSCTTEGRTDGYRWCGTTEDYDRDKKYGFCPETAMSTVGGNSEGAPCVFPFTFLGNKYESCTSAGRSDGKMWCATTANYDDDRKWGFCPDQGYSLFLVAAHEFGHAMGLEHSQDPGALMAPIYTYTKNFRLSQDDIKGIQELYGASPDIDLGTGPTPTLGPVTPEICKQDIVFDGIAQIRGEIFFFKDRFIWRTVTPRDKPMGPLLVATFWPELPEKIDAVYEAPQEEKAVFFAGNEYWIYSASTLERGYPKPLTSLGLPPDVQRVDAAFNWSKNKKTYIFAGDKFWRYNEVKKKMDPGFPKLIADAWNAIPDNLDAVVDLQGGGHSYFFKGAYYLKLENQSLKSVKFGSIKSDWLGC

MMP-9 = target: T3, MMP-9 (Homo sapiens, UniProt P14780); assay: FRET peptide cleavage efficiency with MMP-9 (standard pH 7.5; also pH 6.5)
T3 construct: purchased SIGMA PF024

MMP-7 = target: T4, MMP-7 (Homo sapiens, UniProt P09237); assay: FRET peptide cleavage efficiency with MMP-7 (standard pH 7.5; also pH 6.5)
T4 construct: purchased SIGMA CC1059
T4 sequence (P09237 95-267): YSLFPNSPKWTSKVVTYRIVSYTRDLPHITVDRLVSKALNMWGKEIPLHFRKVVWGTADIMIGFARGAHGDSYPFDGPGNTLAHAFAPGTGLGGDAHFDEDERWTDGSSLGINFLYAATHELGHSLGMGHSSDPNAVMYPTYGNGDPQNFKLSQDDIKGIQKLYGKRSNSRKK

uPA = uPA (Homo sapiens, UniProt P00749); assay: FRET peptide cleavage efficiency with uPA
[1] = t = 60 min, standard conditions (Table 8)
[2] = t = 120 min, standard conditions (Table 8)
[3] = t = 15 min, standard conditions (Table 8)
[4] = 200 uM linker, 1 ug/ml protease, 37° C., buffer B pH 9.0
[5] = t = 15 min, 200 uM linker, 1 ug/ml protease, 37° C., buffer C pH 7.5
[6] = t = 60 min, 200 uM linker, 1 ug/ml protease, 37° C., buffer C pH 7.5
[7] = t = 120 min, 200 uM linker, 1 ug/ml protease, 37° C., buffer C pH 7.5
[8] = 200 uM linker, 1 ug/ml protease, 37° C., buffer A pH 8.5

T3 sequence (P14780 94-707): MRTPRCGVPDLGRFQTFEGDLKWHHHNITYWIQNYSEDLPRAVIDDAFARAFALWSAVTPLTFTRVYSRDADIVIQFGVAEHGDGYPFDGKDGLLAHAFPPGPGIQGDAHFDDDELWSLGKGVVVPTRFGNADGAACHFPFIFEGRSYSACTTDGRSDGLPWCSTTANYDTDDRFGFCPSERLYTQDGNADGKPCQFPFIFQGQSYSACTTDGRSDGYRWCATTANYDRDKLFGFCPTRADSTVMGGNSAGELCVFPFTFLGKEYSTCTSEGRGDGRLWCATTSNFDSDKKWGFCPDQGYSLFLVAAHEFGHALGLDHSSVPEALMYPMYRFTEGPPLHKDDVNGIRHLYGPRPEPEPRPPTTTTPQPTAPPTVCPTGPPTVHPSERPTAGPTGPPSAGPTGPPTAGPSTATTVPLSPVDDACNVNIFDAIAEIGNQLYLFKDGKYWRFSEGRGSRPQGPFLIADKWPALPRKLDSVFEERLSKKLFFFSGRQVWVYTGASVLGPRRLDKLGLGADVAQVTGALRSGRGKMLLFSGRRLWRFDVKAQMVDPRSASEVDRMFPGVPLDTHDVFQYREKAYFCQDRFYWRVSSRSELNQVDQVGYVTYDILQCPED

% cleavage Matriptase t = 15 min (matriptase; standard conditions (Table 8)) [%] | % cleavage Matriptase t = 60 min (matriptase; standard conditions (Table 8)) [%] | % cleavage Matriptase t = 120 min (matriptase; standard conditions (Table 8)) [%] | % cleavage MMP-2 t = 15 min (MMP-2; t = 15 min (Table 9)) [%] | % cleavage MMP-2 t = 60 min (MMP-2; t = 60 min (Table 9)) [%] | % cleavage MMP-2 t = 60 min (MMP-2; [1]) [%] | % cleavage MMP-2 t = 120 min (MMP-2; t = 120 min (Table 9)) [%] | % cleavage MMP-2 t = 120 min (MMP-2; [2]) [%] | % cleavage MMP-9 t = 15 min (MMP-9; t = 15 min (Table 9)) [%] | % cleavage MMP-9 t = 15 min (MMP-9; [3]) [%] | % cleavage MMP-9 t = 60 min (MMP-9; t = 60 min (Table 9)) [%] | % cleavage MMP-9 t = 60 min (MMP-9; [1]) [%] | % cleavage MMP-9 t = 120 min (MMP-9; t = 120 min (Table 9)) [%] | % cleavage MMP-9 t = 120 min (MMP-9; [2]) [%] | % cleavage MMP-7 t = 15 min (MMP-7; t = 15 min (Table 9)) [%] | % cleavage MMP-7 t = 15 min (MMP-7; [3]) [%] | % cleavage MMP-7 t = 60 min (MMP-7; t = 60 min (Table 9)) [%] | % cleavage MMP-7 t = 60 min (MMP-7; [1]) [%] | % cleavage MMP-7 t = 120 min (MMP-7; t = 120 min (Table 9)) [%] | % cleavage MMP-7 t = 120 min (MMP-7; [2]) [%] | Substance | also measured
100 | 100 | 100 | 19 | 55 | 55 | 76 | 76 | 23 | 23 | 71 | 71 | 97 | 97 | 22 | 22 | 69 | 69 | 92 | 92 | RGRKSPY-Nle-LQG ([2Abz]RGRKSPY[Nle]LQG[Tyr(3-NO2)]-NH2) [LNK038] | % vcleavage uPA t = 15 min (uPA; standard conditions (Table 8)): 0%; % cleavage uPA t = 60 min (uPA; standard conditions (Table 8)): 0%; % cleavage uPA t = 120 min (uPA; standard conditions (Table 8)): 0%
90 | 100 | 100 | 28 | 70 | 70 | 89 | 89 | 46 | 46 | 100 | 100 | 100 | 100 | 19 | 19 | 63 | 63 | 88 | 88 | RGRKSPYMLQG ([2Abz]RGRKSPYMLQG[Tyr(3-NO2)]-NH2) [LNK037] | % vcleavage uPA t = 15 min (uPA; standard conditions (Table 8)): 0%; % cleavage uPA t = 60 min (uPA; standard conditions (Table 8)): 0%; % cleavage uPA t = 120 min (uPA; standard conditions (Table 8)): 0%
100 | 100 | 100 | 0 | 0 | 0 | 0 | 0 | 0 | 0 | 1 | 1 | 1 | 1 | 1 | 1 | 4 | 4 | 9 | 9 | RGRKSQPLVD ([2Abz]RGRKSQPLVD[Tyr(3-NO2)]-NH2) [LNK041] | % vcleavage uPA t = 15 min (uPA; standard conditions (Table 8)): 0%; % cleavage uPA t = 60 min (uPA; standard conditions (Table 8)): 0%; % cleavage uPA t = 120 min (uPA; standard conditions (Table 8)): 0%
99 | 100 | 100 | 77 | 100 | 100 | 100 | 100 | 75 | 75 | 100 | 100 | 100 | 100 | 22 | 22 | 74 | 74 | 93 | 93 | RGRKVANLVG ([2Abz]RGRKVANLVG[Tyr(3-NO2)]-NH2) [LNK031] | % vcleavage uPA t = 15 min (uPA; standard conditions (Table 8)): 1%; % cleavage uPA t = 60 min (uPA; standard conditions (Table 8)): 1%; % cleavage uPA t = 120 min (uPA; standard conditions (Table 8)): 2%
 |  |  | 76 | 100 |  | 100 |  | 32 |  | 100 |  | 100 |  | 0 |  | 0 |  | 0 |  | RGRRAANLVRPLGYFGKL ([2Abz]RGRRAANLVRPLGYFGKL[Tyr(3-NO2)]-NH2) [LNK060] | % cleavage Matriptase t = 15 min (matriptase; [4]): 90%; % cleavage Matriptase t = 60 min (matriptase; [4]): 100%; % cleavage Matriptase t = 120 min (matriptase; [4]): 100%; % cleavage MMP-2 t = 15 min (MMP-2; [5]): 76%; % cleavage MMP-2 t = 60 min (MMP-2; [6]): 100%; % cleavage MMP-2 t = 120 min (MMP-2; [7]): 100%; % cleavage uPA t = 15 min (uPA; [8]): 2%; % cleavage uPA t = 60 min (uPA; [8]): 11%; % cleavage uPA t = 120 min (uPA; [8]): 25%
100 | 100 | 100 | 0 | 0 | 0 | 0 | 0 | 0 | 0 | 0 | 0 | 0 | 0 | 0 | 0 | 0 | 0 | 0 | 0 | RGRRGP ([2Abz]RGRRGP[Tyr(3-NO2)]-NH2) [LNK048] | % vcleavage uPA t = 15 min (uPA; standard conditions (Table 8)): 0%; % cleavage uPA t = 60 min (uPA; standard conditions (Table 8)): 0%; % cleavage uPA t = 120 min (uPA; standard conditions (Table 8)): 0%
 |  |  | 89 | 100 |  | 100 |  | 56 |  | 100 |  | 100 |  | 1 |  | 4 |  | 8 |  | RGRRPLGLAG ([2Abz]RGRRPLGLAG[Tyr(3-NO2)]-NH2) [LNK049] | % cleavage Matriptase t = 15 min (matriptase; [4]): 16%; % cleavage Matriptase t = 60 min (matriptase; [4]): 70%; % cleavage Matriptase t = 120 min (matriptase; [4]): 100%; % cleavage MMP-2 t = 15 min (MMP-2; [5]): 89%; % cleavage MMP-2 t = 60 min (MMP-2; [6]): 100%; % cleavage MMP-2 t = 120 min (MMP-2; [7]): 100%; % cleavage uPA t = 15 min (uPA; [8]): 0%; % cleavage uPA t = 60 min (uPA; [8]): 0%; % cleavage uPA t = 120 min (uPA; [8]): 0%
 |  |  | 73 | 100 |  | 100 |  | 62 |  | 100 |  | 100 |  | 3 |  | 8 |  | 14 |  | RGRRPLGLAGGSG ([2Abz]RGRRPLGLAGGSG[Tyr(3-NO2)]-NH2) [LNK051] | % cleavage Matriptase t = 15 min (matriptase; [4]): 22%; % cleavage Matriptase t = 60 min (matriptase; [4]): 72%; % cleavage Matriptase t = 120 min (matriptase; [4]): 100%; % cleavage MMP-2 t = 15 min (MMP-2; [5]): 73%; % cleavage MMP-2 t = 60 min (MMP-2; [6]): 100%; % cleavage MMP-2 t = 120 min (MMP-2; [7]): 100%; % cleavage uPA t = 15 min (uPA; [8]): 0%; % cleavage uPA t = 60 min (uPA; [8]): 0%; % cleavage uPA t = 120 min (uPA; [8]): 0%
